Assay results as given in US20200299389A1.

Columns and labels:
VEGF165 [1] = molecular target: VEGF165 (UniProt P15692); experiment: ELISA; details: Fc fusion
VEGF165 [2] = molecular target: VEGF165 (UniProt P15692); experiment: cell-based or functional assay

Sequence of VEGF165 (P15692 other isoform, or with tags, fused parts or gaps): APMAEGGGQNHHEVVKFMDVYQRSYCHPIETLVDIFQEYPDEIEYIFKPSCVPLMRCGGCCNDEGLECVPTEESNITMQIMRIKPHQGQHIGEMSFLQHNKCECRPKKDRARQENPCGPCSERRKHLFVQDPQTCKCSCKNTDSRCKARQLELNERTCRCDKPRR

EC50 (VEGF165 [1]) [nM] | inhibition of VEGF165-stimulated HUVEC proliferation (IC50) (VEGF165 [2]) [nM] | Substance
0.057 |  | VEGFR-Fc (aflibercept) (from UniProt P17948 129-230; P35968 225-327)
 | 0.107 | VEGFR-Fc (aflibercept) (from UniProt P17948 129-230; P35968 225-327) (Fc fusion)
